According to US20200262877A1, “ION CHANNEL-BINDING PEPTIDES AND METHODS OF USE THEREOF” (priority 2017, published 2020):

Experiments:
GABA = assay: Ion channel panel (IonWorks Barracuda): GABA; assay type: cell-based; conditions: 100% = no change, <100% = inhibition
In short: (§1)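 Peptides were tested in duplicate at final 20 μM and 200 nM, with concentration set by amino acid analysis, in HEPES-buffered saline. They were applied for at least 5 min to HEK293 or CHO cells transfected with each channel. Currents were expressed as % inhibition, 1-(Ipeptide/Icontrol)×100, or % activation, Ipeptide/Icontrol×100, against a channel-matched reference compound.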

NR2B = target: T1, NR2B (Homo sapiens, UniProt Q13224); assay: Ion channel panel (IonWorks Barracuda): NR2B; assay type: cell-based; conditions: 100% = no change, <100% = inhibition
T1 construct: host or cells: HEK293 or CHO
In short: as §1

Nav1.5 = Nav1.5 (Homo sapiens, UniProt Q14524); assay: in vitro; conditions: 100% = no change; for Activity of Nav1.5 with peptide, expressed as a percentage of the reference compound: peptide at 0.2 μM; for Activity of Nav1.5 with peptide (percentage of the reference compound): peptide at 20 μM
Nav1.5, sequence (Q14524 whole entry): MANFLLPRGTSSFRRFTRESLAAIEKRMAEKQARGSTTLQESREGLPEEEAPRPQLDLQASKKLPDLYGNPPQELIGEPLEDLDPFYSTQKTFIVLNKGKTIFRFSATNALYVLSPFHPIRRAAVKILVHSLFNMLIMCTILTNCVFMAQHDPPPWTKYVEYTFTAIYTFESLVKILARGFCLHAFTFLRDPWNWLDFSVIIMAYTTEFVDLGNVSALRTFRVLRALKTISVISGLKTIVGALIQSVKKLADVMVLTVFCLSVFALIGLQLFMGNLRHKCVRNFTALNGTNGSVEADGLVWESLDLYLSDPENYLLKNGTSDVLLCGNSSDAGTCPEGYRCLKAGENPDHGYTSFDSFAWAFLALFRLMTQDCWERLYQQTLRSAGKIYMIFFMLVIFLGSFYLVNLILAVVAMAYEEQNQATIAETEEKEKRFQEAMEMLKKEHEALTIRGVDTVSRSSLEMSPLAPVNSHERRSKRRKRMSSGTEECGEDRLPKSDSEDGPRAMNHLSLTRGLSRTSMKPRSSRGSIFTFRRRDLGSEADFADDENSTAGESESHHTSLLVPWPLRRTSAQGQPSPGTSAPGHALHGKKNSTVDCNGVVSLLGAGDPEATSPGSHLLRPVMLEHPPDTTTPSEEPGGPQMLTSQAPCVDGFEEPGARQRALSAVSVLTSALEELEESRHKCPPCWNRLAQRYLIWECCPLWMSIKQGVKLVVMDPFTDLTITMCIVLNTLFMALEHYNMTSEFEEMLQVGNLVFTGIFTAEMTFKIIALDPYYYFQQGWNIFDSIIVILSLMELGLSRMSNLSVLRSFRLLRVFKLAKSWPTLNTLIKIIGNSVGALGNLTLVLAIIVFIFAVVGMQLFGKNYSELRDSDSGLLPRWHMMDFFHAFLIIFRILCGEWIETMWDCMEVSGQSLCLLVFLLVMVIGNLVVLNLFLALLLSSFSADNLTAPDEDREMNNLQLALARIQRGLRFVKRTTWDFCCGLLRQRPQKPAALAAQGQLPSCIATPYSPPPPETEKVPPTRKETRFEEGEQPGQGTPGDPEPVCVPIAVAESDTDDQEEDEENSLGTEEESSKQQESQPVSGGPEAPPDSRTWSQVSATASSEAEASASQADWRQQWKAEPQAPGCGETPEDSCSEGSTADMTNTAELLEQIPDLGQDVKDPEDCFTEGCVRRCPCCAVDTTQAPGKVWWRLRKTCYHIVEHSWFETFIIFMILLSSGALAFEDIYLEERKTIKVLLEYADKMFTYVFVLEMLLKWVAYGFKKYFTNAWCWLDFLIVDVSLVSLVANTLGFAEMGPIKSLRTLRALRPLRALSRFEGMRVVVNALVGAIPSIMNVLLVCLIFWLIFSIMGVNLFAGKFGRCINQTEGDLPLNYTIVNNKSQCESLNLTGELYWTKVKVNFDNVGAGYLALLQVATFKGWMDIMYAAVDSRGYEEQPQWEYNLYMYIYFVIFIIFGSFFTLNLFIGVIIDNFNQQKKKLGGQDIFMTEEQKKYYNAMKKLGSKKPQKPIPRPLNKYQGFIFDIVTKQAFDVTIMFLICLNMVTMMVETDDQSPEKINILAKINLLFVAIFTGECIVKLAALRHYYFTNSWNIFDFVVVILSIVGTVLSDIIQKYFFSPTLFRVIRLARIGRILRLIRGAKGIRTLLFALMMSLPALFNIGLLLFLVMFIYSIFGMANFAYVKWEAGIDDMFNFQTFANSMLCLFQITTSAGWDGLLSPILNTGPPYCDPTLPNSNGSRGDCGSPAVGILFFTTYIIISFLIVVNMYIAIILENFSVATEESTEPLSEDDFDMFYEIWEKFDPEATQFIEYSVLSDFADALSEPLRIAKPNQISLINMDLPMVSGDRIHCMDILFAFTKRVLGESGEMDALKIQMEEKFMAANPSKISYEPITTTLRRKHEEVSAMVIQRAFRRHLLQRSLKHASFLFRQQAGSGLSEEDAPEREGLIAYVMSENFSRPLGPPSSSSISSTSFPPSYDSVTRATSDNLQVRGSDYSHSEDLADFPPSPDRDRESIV
In short: as §1

hERG = hERG (Homo sapiens, UniProt Q12809); assay: in vitro; conditions: 100% = no change, <100% = inhibition
In short: as §1

α4β2 = target: T2, α4β2 (Homo sapiens, UniProt P17787+P43681); assay: Ion channel panel (IonWorks Barracuda): α4β2; assay type: cell-based; conditions: 100% = no change, <100% = inhibition
T2 construct: host or cells: HEK293 or CHO
In short: as §1

Kv2.1 = target: T3, Kv2.1 (Homo sapiens, UniProt Q14721); assay: cell-based; conditions: 100% = no change, <100% = inhibition
T3 construct: host or cells: HEK293 or CHO
In short: as §1

Cav2.1 = target: T4, Cav2.1 (Homo sapiens, UniProt O00555); assay: cell-based; conditions: 100% = no change, <100% = inhibition
T4 construct: host or cells: HEK293 or CHO
In short: as §1

Cav2.2 = target: T5, Cav2.2 (Homo sapiens, UniProt Q00975); assay: cell-based; conditions: 100% = no change, <100% = inhibition
T5 construct: host or cells: HEK293 or CHO
In short: as §1

NR2A = target: T6, NR2A (Homo sapiens, UniProt Q12879); assay: Ion channel panel (IonWorks Barracuda): NR2A; assay type: cell-based; conditions: 100% = no change, <100% = inhibition
T6 construct: host or cells: HEK293 or CHO
In short: as §1

Kir2.1 = target: T7, Kir2.1 (Homo sapiens, UniProt P63252); assay: Ion channel panel (IonWorks Barracuda): Kir2.1; assay type: cell-based; conditions: 100% = no change, <100% = inhibition
T7 construct: host or cells: HEK293 or CHO
T7 sequence (P63252 whole entry): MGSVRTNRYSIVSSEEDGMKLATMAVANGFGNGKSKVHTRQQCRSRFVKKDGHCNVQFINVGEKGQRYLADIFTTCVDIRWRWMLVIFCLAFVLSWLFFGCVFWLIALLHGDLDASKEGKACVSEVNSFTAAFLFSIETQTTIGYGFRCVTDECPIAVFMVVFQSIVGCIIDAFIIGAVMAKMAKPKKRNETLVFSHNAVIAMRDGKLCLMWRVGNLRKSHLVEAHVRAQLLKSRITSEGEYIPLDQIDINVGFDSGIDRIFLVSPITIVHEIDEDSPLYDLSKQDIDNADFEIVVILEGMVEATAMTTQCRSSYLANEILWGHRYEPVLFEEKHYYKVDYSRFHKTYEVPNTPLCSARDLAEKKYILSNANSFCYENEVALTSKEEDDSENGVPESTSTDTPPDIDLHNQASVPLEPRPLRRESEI
In short: as §1

α3β4 = target: T8, α3β4 (Homo sapiens, UniProt P30926+P32297); assay: Ion channel panel (IonWorks Barracuda): α3β4; assay type: cell-based; conditions: 100% = no change, <100% = inhibition
T8 construct: host or cells: HEK293 or CHO
In short: as §1

5HT3a = target: T9, 5HT3a (Homo sapiens, UniProt P46098); assay: Ion channel panel (IonWorks Barracuda): 5HT3a; assay type: cell-based
T9 construct: host or cells: HEK293 or CHO
T9 sequence (P46098 whole entry, looked up): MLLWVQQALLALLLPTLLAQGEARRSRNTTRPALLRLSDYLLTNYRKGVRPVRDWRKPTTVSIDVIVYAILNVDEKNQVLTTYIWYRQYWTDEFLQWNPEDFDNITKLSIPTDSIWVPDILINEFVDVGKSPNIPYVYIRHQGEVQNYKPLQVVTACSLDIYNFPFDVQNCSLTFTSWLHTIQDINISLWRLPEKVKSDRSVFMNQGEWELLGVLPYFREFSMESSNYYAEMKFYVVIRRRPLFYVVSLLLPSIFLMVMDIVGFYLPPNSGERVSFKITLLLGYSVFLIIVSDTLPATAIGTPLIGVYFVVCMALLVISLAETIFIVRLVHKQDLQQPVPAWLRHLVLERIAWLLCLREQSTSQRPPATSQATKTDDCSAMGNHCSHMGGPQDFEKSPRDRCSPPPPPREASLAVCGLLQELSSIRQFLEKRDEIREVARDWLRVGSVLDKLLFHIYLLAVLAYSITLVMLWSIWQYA
In short: as §1

Kv1.1 = target: T10, Kv1.1 (Homo sapiens, UniProt Q09470); assay: cell-based; assay type: cell-based; conditions: 100% = no change, <100% = inhibition
T10 construct: host or cells: HEK293 or CHO
In short: as §1

Kv1.3 = target: T11, Kv1.3 (Homo sapiens, UniProt P22001); assay: cell-based; assay type: cell-based; conditions: 100% = no change, <100% = inhibition
T11 construct: host or cells: HEK293 or CHO
T11 sequence (P22001 whole entry): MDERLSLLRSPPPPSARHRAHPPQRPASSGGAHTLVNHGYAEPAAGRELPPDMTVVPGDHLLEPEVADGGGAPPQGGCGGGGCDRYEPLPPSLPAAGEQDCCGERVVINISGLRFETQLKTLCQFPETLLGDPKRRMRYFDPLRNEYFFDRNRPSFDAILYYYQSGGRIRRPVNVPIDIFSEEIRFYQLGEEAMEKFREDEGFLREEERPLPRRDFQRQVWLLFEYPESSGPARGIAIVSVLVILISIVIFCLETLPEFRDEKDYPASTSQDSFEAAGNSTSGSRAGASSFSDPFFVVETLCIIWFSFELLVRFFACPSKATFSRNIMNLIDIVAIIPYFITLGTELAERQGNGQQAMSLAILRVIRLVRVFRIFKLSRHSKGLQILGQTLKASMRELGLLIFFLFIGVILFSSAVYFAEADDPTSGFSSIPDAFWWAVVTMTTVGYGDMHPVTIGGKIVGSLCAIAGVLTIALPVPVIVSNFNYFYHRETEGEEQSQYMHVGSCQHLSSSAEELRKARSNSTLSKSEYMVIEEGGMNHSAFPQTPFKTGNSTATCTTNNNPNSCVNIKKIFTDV
In short: as §1

Kv1.2 = target: T12, Kv1.2 (Homo sapiens, UniProt P16389); assay: cell-based; assay type: cell-based; conditions: 100% = no change, <100% = inhibition
T12 construct: host or cells: HEK293 or CHO
In short: as §1

Nav1.7 = target: T13, Nav1.7 (Homo sapiens, UniProt Q15858); assay: cell-based; assay type: cell-based; conditions: 100% = no change; for Activity of Nav1.7 with peptide, expressed as a percentage of the reference compound: peptide at 0.2 μM; for Activity of Nav1.7 with peptide (percentage of the reference compound): peptide at 20 μM
T13 construct: host or cells: HEK293 or CHO
T13 sequence (Q15858 whole entry): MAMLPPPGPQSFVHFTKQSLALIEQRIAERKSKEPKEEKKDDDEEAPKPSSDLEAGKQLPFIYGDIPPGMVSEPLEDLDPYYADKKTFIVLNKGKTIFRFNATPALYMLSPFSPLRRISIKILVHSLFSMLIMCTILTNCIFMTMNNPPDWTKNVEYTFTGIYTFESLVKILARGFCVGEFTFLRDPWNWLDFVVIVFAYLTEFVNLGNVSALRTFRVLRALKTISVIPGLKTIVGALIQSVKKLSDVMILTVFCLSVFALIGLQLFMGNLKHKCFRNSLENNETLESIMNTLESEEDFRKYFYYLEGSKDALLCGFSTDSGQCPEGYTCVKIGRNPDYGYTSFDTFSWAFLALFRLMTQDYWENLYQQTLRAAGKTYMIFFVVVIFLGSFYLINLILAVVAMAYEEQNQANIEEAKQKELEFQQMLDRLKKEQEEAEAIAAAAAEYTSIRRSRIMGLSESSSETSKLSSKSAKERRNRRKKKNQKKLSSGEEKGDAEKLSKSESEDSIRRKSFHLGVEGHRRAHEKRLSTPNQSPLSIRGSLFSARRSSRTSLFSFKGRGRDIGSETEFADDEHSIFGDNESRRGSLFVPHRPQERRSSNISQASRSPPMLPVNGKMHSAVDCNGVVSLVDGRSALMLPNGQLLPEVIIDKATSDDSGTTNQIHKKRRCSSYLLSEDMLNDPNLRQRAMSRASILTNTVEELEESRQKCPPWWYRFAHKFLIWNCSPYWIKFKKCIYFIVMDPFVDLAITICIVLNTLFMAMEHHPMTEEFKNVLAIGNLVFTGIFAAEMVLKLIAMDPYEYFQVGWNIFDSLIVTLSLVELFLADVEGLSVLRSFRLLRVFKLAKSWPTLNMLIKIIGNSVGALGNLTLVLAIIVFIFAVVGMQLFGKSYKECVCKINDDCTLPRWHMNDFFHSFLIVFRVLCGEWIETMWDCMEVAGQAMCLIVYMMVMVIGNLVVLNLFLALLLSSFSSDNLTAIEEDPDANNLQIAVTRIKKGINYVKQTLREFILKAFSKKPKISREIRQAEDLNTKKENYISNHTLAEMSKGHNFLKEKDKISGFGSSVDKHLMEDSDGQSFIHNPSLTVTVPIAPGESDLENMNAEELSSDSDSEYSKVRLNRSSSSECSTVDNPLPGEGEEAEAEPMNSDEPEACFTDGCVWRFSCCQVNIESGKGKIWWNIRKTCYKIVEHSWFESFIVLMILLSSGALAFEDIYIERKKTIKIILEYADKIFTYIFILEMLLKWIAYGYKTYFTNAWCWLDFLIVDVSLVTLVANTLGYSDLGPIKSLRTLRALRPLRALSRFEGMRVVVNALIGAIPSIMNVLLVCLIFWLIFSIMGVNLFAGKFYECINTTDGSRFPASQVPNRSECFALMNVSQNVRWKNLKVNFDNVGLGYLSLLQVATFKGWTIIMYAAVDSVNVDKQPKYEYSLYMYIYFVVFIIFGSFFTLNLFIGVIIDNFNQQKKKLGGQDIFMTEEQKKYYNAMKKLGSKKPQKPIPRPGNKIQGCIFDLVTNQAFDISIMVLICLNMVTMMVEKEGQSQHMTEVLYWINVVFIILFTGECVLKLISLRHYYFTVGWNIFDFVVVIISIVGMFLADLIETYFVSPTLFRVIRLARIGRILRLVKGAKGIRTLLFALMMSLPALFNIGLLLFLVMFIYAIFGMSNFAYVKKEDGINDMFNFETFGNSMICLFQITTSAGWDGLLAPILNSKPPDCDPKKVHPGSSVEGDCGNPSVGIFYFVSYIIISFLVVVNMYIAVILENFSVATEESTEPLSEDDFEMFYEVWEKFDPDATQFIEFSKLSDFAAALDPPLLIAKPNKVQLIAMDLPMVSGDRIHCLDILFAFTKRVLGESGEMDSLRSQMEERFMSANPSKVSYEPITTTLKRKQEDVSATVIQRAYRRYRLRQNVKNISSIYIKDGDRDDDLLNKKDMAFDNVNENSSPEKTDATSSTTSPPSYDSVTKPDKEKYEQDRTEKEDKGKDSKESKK

TRPA1 = target: T14, TRPA1 (Homo sapiens, UniProt O75762); assay: Ion channel panel (IonWorks Barracuda): TRPA1; assay type: cell-based; conditions: 100% = no change, <100% = inhibition
T14 construct: host or cells: HEK293 or CHO
In short: as §1

TRPV1 = target: T15, TRPV1 (Homo sapiens, UniProt Q8NER1); assay: Ion channel panel (IonWorks Barracuda): TRPV1; assay type: cell-based; conditions: 100% = no change, <100% = inhibition
T15 construct: host or cells: HEK293 or CHO
In short: as §1

[1] = first of two Nav1.5 columns (probably TP1)
[2] = second of two Nav1.5 columns (probably TP2)
[3] = first of two Nav1.7 columns (probably TP1)
[4] = second of two Nav1.7 columns (probably TP2)

24 (GSSCAKPGEMCMRIKCCDGQCGCNRGTGRCFCK) [compound 24]
Activity of GABA with peptide, expressed as a percentage of the reference compound (GABA; peptide at 0.2 μM): 96%
Activity of GABA with peptide (percentage of the reference compound) (GABA; peptide at 20 μM): 114%
Activity of NR2B with peptide, expressed as a percentage of the reference compound (NR2B; peptide at 0.2 μM): 102%
Activity of NR2B with peptide (percentage of the reference compound) (NR2B; peptide at 20 μM): 92%
Activity of Nav1.5 with peptide, expressed as a percentage of the reference compound (Nav1.5; [1]): 94%
Activity of Nav1.5 with peptide, expressed as a percentage of the reference compound (Nav1.5; [2]): 95%
Activity of Nav1.5 with peptide (percentage of the reference compound) (Nav1.5; [1]): 99%
Activity of Nav1.5 with peptide (percentage of the reference compound) (Nav1.5; [2]): 104%
Activity of hERG with peptide, expressed as a percentage of the reference compound (hERG; peptide at 0.2 μM): 88%
Activity of hERG with peptide (percentage of the reference compound) (hERG; peptide at 20 μM): 78%
Activity of a4b2 with peptide, expressed as a percentage of the reference compound (α4β2; peptide at 0.2 μM): 97%
Activity of a4b2 with peptide (percentage of the reference compound) (α4β2; peptide at 20 μM): 88%
Activity of Kv2.1 with peptide, expressed as a percentage of the reference compound (Kv2.1; peptide at 0.2 μM): 91%
Activity of Kv2.1 with peptide (percentage of the reference compound) (Kv2.1; peptide at 20 μM): 81%
Activity of Cav2.1 with peptide, expressed as a percentage of the reference compound (Cav2.1; peptide at 0.2 μM): 92%
Activity of Cav2.1 with peptide (percentage of the reference compound) (Cav2.1; peptide at 20 μM): 121%
Activity of Cav2.2 with peptide, expressed as a percentage of the reference compound (Cav2.2; peptide at 0.2 μM): 120%
Activity of Cav2.2 with peptide (percentage of the reference compound) (Cav2.2; peptide at 20 μM): 102%
Activity of NR2A with peptide, expressed as a percentage of the reference compound (NR2A; peptide at 0.2 μM): 102%
Activity of NR2A with peptide (percentage of the reference compound) (NR2A; peptide at 20 μM): 100%
Activity of Kir2.1 with peptide, expressed as a percentage of the reference compound (Kir2.1; peptide at 0.2 μM): 104%
Activity of Kir2.1 with peptide (percentage of the reference compound) (Kir2.1; peptide at 20 μM): 90%
Activity of a3b4 with peptide, expressed as a percentage of the reference compound (α3β4; peptide at 0.2 μM): 101%
Activity of a3b4 with peptide (percentage of the reference compound) (α3β4; peptide at 20 μM): 87%
Activity of 5HT3a with peptide (percentage of the reference compound) (5HT3a): 84%
Activity of 5HT3a with peptide, expressed as a percentage of the reference compound (5HT3a): 85%
Activity of Kv1.1 with peptide, expressed as a percentage of the reference compound (Kv1.1; peptide at 0.2 μM): 65%
Activity of Kv1.1 with peptide (percentage of the reference compound) (Kv1.1; peptide at 20 μM): 69%
Activity of Kv1.3 with peptide, expressed as a percentage of the reference compound (Kv1.3; peptide at 0.2 μM): 94%
Activity of Kv1.3 with peptide (percentage of the reference compound) (Kv1.3; peptide at 20 μM): 73%
Activity of Kv1.2 with peptide, expressed as a percentage of the reference compound (Kv1.2; peptide at 0.2 μM): 74%
Activity of Kv1.2 with peptide (percentage of the reference compound) (Kv1.2; peptide at 20 μM): 83%
Activity of Nav1.7 with peptide, expressed as a percentage of the reference compound (Nav1.7; [3]): 84%
Activity of Nav1.7 with peptide, expressed as a percentage of the reference compound (Nav1.7; [4]): 97%
Activity of Nav1.7 with peptide (percentage of the reference compound) (Nav1.7; [3]): 80%
Activity of Nav1.7 with peptide (percentage of the reference compound) (Nav1.7; [4]): 83%
Activity of TRPA1 with peptide, expressed as a percentage of the reference compound (TRPA1; peptide at 0.2 μM): 132%
Activity of TRPA1 with peptide (percentage of the reference compound) (TRPA1; peptide at 20 μM): 107%
Activity of TRPV1 with peptide, expressed as a percentage of the reference compound (TRPV1; peptide at 0.2 μM): 131%
Activity of TRPV1 with peptide (percentage of the reference compound) (TRPV1; peptide at 20 μM): 102%
